What was measured:
anti-GBB5-A1 scFv = test: ELISA; conditions: chain shown with the change; biotinylated peptides immobilized in streptavidin-coated microtiter plate wells; soluble scFv protein; parent: est. 100; read off a plot
anti-GBB5-H9 scFv = test: ELISA; conditions: chain shown with the change; biotinylated peptides immobilized in streptavidin-coated microtiter plate wells; soluble scFv protein; parent: est. 100; read off a plot
[1] = target: anti-GBB5-H9 scFv-Fc (human); test: SEC; size exclusion chromatography and denaturing SDS-PAGE of the purified scFv-Fc; conditions not given

anti-GBB5-A1 scFv, sequence (chain, as listed by the source, chain 1 of 2): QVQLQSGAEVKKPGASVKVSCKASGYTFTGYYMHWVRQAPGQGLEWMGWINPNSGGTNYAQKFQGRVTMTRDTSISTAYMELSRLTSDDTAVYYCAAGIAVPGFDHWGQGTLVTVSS
anti-GBB5-A1 scFv, sequence (chain, as listed by the source, chain 2 of 2): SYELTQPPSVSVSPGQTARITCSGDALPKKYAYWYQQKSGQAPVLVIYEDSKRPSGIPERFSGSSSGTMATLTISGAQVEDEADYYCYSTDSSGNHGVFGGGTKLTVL

percent of parent (% signal of wild type) (anti-GBB5-A1 scFv) | percent of parent (% signal of wild type) (anti-GBB5-H9 scFv) | stoichiometry N [1] | Binder
51 | 55 | – | GSGSKLHDVELHQAAERV [GBB5 peptide (Guanine Nucleotide-Binding Protein Beta 5) V14A]
0.3 | 1.9 | – | GSGSKLHAVELHQVAERV [GBB5 peptide (Guanine Nucleotide-Binding Protein Beta 5) D4A]
– | – | 2 | anti-GBB5-H9 scFv-Fc (Fc fusion) VH: EVQLVQSGGGLVQPGGSLRLSCAASGFTVSSNYMSWVRQAPGKGLEWVSSISSSSSYIYYADSVKGRFTISRDNAKNSLYLQMNSLRAEDTAVYYCARSYPFDYWGQGTLVTVSS VL: NFMLTQPHSVSESPGKAVTISCTGSSGDVARNYVQWYQQRPGSAPIIVIYEDTQRPSGVPDRFSGSIDSSSNSASLTISGLTTEDEADYYCQSYDGHNVIFGGGTKLTVL
0.2 | 74 | – | GSGSALHDVELHQVAERV [GBB5 peptide (Guanine Nucleotide-Binding Protein Beta 5) K1A]
56 | 1.7 | – | GSGSKLHDVELHQVAEAV [GBB5 peptide (Guanine Nucleotide-Binding Protein Beta 5) R13A]
